Measured values as given in paper PMC7190642.
pKd: −log10 of the molar value.

Legend:
[1] = target: GST-MDM2-419–C-S429E (human) (UniProt Q00987)
[2] = target: GST-MDM2-350–C-6D (human) (UniProt Q00987); assay: SPR; GST-tagged MDM2 variants captured on a CM-5 chip with coupled anti-GST antibody; serial dilution of UbcH5B–Ub as analyte; 25 °C; 25 mM Tris-HCl pH 7.6, 150 mM NaCl, 0.1 mg/ml BSA, 1 mM DTT, 0.005% Tween-20; Biacore T200; GST alone subtracted
[3] = target: GST-MDM2-350–C-6D/His-MDMX-428–C heterodimer (UniProt Q00987); assay: as above
[4] = target: GST-MDM2-350–C-S386D (human) (UniProt Q00987); assay: as above
[5] = target: GST-MDM2-350–C-S395D (human) (UniProt Q00987); assay: as above
[6] = target: GST-MDM2-350–C-S407D (human) (UniProt Q00987); assay: as above
[7] = target: GST-MDM2-350–C-S425D (human) (UniProt Q00987); assay: as above
[8] = target: GST-MDM2-350–C-S429D (human) (UniProt Q00987); assay: as above
[9] = target: GST-MDM2-350–C-T419D (human) (UniProt Q00987); assay: as above
[10] = target: GST-MDM2-350–C/His-MDMX-428–C heterodimer (UniProt Q00987); assay: as above
GST-MDM2-419–C (human) = GST-MDM2-419–C (human) (UniProt Q00987); assay: as above
[11] = target: GST-MDM2-419–C-S429D (human) (UniProt Q00987); assay: as above
[12] = target: GST-MDM2-419–C-S429E (human) (UniProt Q00987); assay: as above
[13] = target: GST-MDM2-419–C-S429E/His-MDMX-418–C heterodimer (UniProt Q00987); assay: as above
[14] = target: GST-MDM2-419–C-pS429 (human) (UniProt Q00987); assay: as above
[15] = target: GST-MDM2-419–C/His-MDMX-418–C heterodimer (UniProt Q00987); assay: as above
[16] = target: GST-cat MDM2-422–C (Felis catus (cat)) (UniProt Q7YRZ8); assay: as above
[17] = target: GST-cat MDM2-422–C-S429E (Felis catus (cat)) (UniProt Q7YRZ8); assay: as above

UbcH5B S22R, C85K–Ub (stably conjugated E2–ubiquitin) (from UniProt P62837 1-147; P0CG47 1-76) (complex)
rate of autoubiquitination of the MDM2 homodimer over time, S429E against WT [1]: 1.6 fold
pKd [2]: 5.17
pKd [3]: 4.53
pKd [4]: 4.86
pKd [5]: 4.86
pKd [6]: 4.86
pKd [7]: 4.87
pKd [8]: 5.11
pKd [9]: 4.89
pKd [10]: 4.44
pKd (GST-MDM2-419–C (human)): 4.85
pKd [11]: 5.15
pKd [12]: 5.19
pKd [13]: 4.75
pKd [14]: 5.29
pKd [15]: 4.63
pKd [16]: 4.77
pKd [17]: 5.17
